Values quoted from earlier work as cited in PMC4718210.
Read-outs that look alike come from different tables or passages of the source.

Key:
[1] = target: RXFP2 receptor (Homo sapiens) (UniProt Q8WXD0)
[2] = target: RXFP4 receptor (Homo sapiens) (UniProt Q8TDU9)
[3] = target: RXFP4 receptor (Homo sapiens) (UniProt Q8TDU9); remark: listed apart in the source
[4] = target: TRH1 receptor (Homo sapiens) (UniProt P34981)
[5] = target: RXFP1 receptor (Homo sapiens) (UniProt Q9HBX9)
Sequence of UniProt Q9HBX9 (Q9HBX9 whole entry): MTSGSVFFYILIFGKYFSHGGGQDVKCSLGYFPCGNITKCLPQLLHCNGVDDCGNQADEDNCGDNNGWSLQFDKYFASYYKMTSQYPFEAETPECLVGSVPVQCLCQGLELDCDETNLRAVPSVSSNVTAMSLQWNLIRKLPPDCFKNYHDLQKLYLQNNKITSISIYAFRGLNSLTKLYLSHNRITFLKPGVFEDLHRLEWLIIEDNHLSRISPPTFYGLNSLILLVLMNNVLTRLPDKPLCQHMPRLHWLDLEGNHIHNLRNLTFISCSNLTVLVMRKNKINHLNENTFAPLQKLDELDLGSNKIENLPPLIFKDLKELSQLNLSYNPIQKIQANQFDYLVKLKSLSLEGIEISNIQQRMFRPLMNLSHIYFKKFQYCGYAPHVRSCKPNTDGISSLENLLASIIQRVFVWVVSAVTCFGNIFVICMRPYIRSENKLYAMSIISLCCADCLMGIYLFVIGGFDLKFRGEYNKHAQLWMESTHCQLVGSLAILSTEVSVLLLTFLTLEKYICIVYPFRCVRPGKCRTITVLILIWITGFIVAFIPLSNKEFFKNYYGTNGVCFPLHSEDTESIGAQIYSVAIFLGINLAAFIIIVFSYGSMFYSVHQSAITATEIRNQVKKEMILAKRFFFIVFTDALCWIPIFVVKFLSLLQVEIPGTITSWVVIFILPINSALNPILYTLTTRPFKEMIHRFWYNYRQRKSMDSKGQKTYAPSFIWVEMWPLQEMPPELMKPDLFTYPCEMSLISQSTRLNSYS

Sequence of UniProt Q8TDU9 (Q8TDU9 whole entry): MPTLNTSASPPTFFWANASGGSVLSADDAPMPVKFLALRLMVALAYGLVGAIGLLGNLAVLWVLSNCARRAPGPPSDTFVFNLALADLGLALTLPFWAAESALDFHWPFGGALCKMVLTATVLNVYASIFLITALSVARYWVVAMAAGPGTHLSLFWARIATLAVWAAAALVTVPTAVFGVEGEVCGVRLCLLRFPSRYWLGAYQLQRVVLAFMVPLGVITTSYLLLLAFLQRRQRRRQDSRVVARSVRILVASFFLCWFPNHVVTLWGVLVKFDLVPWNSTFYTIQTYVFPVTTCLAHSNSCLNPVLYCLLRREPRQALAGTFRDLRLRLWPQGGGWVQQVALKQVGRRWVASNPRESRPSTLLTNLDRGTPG
Sequence of UniProt Q8WXD0 (Q8WXD0 whole entry): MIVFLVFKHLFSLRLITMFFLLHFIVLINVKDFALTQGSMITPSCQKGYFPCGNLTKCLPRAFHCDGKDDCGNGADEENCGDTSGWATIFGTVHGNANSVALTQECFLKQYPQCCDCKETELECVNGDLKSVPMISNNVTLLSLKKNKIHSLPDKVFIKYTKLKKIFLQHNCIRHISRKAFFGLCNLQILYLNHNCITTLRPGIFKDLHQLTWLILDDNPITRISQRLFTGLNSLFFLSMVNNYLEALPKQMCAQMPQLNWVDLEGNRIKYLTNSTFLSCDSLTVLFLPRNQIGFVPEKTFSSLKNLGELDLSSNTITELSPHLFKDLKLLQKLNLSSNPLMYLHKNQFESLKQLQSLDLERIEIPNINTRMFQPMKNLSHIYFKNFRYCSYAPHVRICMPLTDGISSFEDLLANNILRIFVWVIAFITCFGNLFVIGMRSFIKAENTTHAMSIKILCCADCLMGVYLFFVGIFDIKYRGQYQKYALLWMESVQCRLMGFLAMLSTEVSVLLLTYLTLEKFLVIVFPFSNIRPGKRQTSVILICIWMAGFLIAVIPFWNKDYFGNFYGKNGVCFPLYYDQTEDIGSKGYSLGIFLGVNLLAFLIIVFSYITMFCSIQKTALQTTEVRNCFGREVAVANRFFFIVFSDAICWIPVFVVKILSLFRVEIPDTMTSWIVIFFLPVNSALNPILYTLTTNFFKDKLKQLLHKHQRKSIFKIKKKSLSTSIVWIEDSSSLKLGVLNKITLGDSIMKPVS
Sequence of UniProt P34981 (P34981 whole entry): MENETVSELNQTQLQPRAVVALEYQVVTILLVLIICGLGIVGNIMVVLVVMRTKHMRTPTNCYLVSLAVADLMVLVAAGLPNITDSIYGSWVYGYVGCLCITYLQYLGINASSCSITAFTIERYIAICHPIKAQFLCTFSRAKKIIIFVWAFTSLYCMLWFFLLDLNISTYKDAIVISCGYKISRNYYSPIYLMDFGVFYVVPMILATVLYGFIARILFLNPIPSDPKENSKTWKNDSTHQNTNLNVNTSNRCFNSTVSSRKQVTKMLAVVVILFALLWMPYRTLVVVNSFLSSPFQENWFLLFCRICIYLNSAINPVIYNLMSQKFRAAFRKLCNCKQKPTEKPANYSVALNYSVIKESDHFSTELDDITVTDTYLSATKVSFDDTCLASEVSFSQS

## INSL3 (from UniProt P51460)
[1]
  Kd: 1 nM

## INSL5 (from UniProt Q9WUG6)
[2]
  Kd: 5 nM

## INSL5 (from UniProt Q9Y5Q6)
[3]
  Kd: 5.01 nM

## TRH (from UniProt P20396)
[4]
  Kd: 13 nM

## relaxin (from UniProt P04090)
[5]
  Kd: 0.5 nM
